Biological target: T1, folate receptor Frα (UniProt P15328 25-234, limits assumed)
T1 construct: whole, on cells; also called α-FR; folate receptor alpha
Assay: flow cytometry on IGROV-1, KB and A431-tFR cells; 0.025 mg/mL antibody fragment on nanocubes, 4° C., 1 hour; detected with anti-myc primary antibody and Alexa-488 secondary antibody
Procedure: The A431-tFR and A431-MOCK cells provided by the IRCSS Foundation, National Cancer Institute, Milan, Italy, were grown in the modified Dulbecco culture medium (DMEM, Merck, Kenilworth, USA). IGROV-1 cells (ATCC, UK) were cultured in RPMI-1640 (RPMI-1640, Merck, Kenilworth, USA). The KB cells (ATCC, UK) were cultured in RPMI-1640 without folic acid (RPMI-1640 without folic acid, Merck, Kenilworth, USA). All culture media were added with 10% inactivated fetal bovine serum (FBS), 1% penicillin-streptomycin and 1% glutamine at 37° C., 95% humidity with 5% CO2. The cells were divided every 3-4 days before reaching confluence.
In these experiments, the functionalized nanocubes of the invention comprising the antibody fragment in a quantity of 0.025 mg/mL were incubated in PBS at 4° C. for 1 hour with 5×10⁵ cells of the cell lines indicated above. As a negative control, the non-functionalised nanocubes with polymer coating were used. Then, after three washes, the cells were incubated for 1 hour at 4° C. with the primary antibody that binds to the myc sequence of the C4 antibody fragment. Following a wash in PBS a secondary antibody conjugated to the fluorescent probe Alexa-488 was added to the cells, capable of binding the Fc portion of the primary antibody.

T1 sequence (P15328 25-234 limits assumed): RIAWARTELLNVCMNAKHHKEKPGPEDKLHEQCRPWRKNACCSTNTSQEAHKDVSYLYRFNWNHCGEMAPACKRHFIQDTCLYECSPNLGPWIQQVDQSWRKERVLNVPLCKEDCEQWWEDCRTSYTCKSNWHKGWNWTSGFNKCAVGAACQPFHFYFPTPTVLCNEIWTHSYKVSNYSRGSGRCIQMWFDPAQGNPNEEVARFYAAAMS

binding result: binds
B1: single chain variable fragment of human antibody C4 (C4 scFv), attached to iron oxide nanocubes (scFv)
scFv: NVQLVESGGGLVQPGRSLRLSCTTSGFTFGDYAMIWARQAPGKGLEWVSSISSSSSYIYYADSVKGRFTISRDNAKNSLYLQMNSLRAEDTAVYYCARERYDFWSGMDVWGKGTTVTVSSGGGGSGGGGSGGSAQSALTQPASVSGSPGQSITISCTGTSSDVGSYNLVSWYQQHPGKAPKLMIYEGSKRPSGVSNRFSGSKSGNAASLTISGLQAEDEADYYCQSYDSSLSVVFGGGTKLTVLGAAAHHHHHHGAAEQ
modifications: histidine tag complexed to Ni2+ of PEG-NTA-Ni linker on the polymer-coated iron oxide nanocube
notes: In the assays the scFv was not free; It was held on polymer-coated cubic iron oxide nanoparticles through its histidine tag and PEG-NTA-Ni, with or without PEG-oxaliplatin; also called scFvC4; C4 antibody fragment

— patent US20210052637A1 (CONSIGLI NAZIONALE DELLE RICERCHE, published 2021)
